Values joined by “and” are separate entries in the source; they are usually repeats but may differ in a detail not shown here. Equal entries are not always repeated.
Target: human TNF-α (R & D Systems) (human, UniProt P01375 77-233)
Assay: cell-based or functional assay

Sequence of human TNF-α (R & D Systems) (P01375 77-233 limits assumed): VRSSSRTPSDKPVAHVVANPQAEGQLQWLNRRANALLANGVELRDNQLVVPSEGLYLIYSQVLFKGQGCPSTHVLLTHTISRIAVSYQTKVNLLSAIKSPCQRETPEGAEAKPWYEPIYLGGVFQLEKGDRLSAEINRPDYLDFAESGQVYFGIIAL

B1: trimeric soluble human TNF-RII-T2 fusion protein (human soluble TNF-RII fused to the T2 C-propeptide of human α(I) collagen) (receptor)
chain: LPAQVAFTPYAPEPGSTCRLREYYDQTAQMCCSKCSPGQHAKVFCTKTSDTVCDSCEDSTYTQLWNWVPECLSCGSRCSSDQVETQACTREQNRICTCRPGWYCALSKQEGCRLCAPLRKCRPGFGVARPGTETSDVVCKPCAPGTFSNTTSSTDICRPHQICNVVAIPGNASMDAVCTSTSPTRSMAPGAVHLPQPVSTRSQHTQPTPEPSTAPSTSFLLPMGPSPPAEGSTGSDANVVRDRDLEVDTTLKSLSQQIENIRSPEGSRKNPARTCRDLKMCHSDWKSGEYWIDPNQGCNLDAIKVFCNMETGETCVYPTQPSVAQKNWYISKNPKDKRHVWFGESMTDGFQFEYGGQGSDPADVAIQLTFLRLMSTEASQNITYHCKNSVAYMDQQTGNLKKALLLKGSNEIEIRAEGNSRFTYSVTVDGCTSHTGAWGKTVIEYKTTKSSRLPIIDVAPLDVGAPDQEFGFDVGPVCFL
- apparent Ki-50 (50% inhibition) of TNF-α mediated apoptosis of WEHI-13VAR cells, human TNF-α at 0.5 ng/mL: ~2 ng/mL and ~8e-12 M

Source: patent US20070087413A1 (GENHUNTER, published 2007)
